Experimental data as given in patent US7214519B2, “Screening method for identifying heme independent modulators of soluble guanylyl cyclase (sGC) activity using αβCys105 mutant sGC” (Board of Regents of the University of Texas System, priority 2003, dated 2007).
Numbering of substitutions follows the chain as printed. Like-named read-outs stand apart in the source and are kept apart here.

Legend:
αβ^Cys105 mutant sGC [1] = target: T1, αβ^Cys105 mutant sGC (Homo sapiens, UniProt Q02108+Q02153, H105C); test: Assay of sGC activity ([32P]cGMP formation from GTP), purified αβ^Cys105 mutant enzyme; assay type: biochemical; details: for sensitivity to SNP after addition of hemin: absence of DTT
T1 construct: made in house; host or cells: Sf9 cells (baculovirus)
T1 sequence (Q02153 1-619 H105C): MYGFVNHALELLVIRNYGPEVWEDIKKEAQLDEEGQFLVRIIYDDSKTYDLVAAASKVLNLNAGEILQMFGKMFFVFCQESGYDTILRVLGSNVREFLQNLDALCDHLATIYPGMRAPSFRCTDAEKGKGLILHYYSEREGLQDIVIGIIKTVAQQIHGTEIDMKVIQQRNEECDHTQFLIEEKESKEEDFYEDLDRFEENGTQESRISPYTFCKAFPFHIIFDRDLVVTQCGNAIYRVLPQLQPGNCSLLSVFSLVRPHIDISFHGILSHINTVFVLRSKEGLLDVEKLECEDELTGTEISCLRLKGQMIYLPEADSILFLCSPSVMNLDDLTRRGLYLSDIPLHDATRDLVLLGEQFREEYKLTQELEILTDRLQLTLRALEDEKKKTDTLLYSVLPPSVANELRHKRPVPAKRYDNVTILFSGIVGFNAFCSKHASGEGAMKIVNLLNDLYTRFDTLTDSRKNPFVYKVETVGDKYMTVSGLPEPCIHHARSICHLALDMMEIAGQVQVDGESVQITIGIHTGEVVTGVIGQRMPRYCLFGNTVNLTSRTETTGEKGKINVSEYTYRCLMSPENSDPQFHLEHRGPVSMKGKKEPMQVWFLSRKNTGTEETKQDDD
T1 sequence (Q02108 1-690): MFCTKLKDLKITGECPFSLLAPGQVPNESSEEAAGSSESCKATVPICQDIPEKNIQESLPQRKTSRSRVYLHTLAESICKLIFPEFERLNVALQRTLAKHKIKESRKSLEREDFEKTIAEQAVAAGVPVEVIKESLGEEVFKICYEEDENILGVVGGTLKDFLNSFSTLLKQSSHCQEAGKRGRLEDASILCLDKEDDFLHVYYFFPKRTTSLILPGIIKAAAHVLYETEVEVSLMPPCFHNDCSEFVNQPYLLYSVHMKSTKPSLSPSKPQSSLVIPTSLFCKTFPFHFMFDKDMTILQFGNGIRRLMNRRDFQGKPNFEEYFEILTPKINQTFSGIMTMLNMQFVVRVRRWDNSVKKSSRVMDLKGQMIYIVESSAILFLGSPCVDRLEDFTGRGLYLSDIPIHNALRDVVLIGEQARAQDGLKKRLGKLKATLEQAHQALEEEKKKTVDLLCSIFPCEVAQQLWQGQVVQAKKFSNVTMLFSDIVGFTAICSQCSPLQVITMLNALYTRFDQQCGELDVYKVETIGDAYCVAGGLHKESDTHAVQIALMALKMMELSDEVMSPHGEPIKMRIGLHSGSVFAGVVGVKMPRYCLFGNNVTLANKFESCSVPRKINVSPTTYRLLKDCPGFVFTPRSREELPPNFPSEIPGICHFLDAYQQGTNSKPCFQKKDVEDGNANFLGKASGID
Protocol: (§1) sGC Expression and Purification. […] Purification of sGC was performed as described earlier (26), the disclosure of which is hereby incorporated herein by reference, with the following modifications. Cells were harvested 72 h post infection, resuspended in loading buffer (25 mM triethanolamine, pH 7.5. 10 glycerol, 4 mM MgCl2 and 1 mM phenylmethylsulfonyl fluoride, and 5 μg/ml each of pepstatin A, leupeptin, aprotinin, and chymostatin,) and lysed by sonication. The lysate was subjected to 100,000×g centrifugation for 1 h. The high-speed supernate was loaded on a 60 ml DEAE-Sepharose (Amersham Pharmacia Biotech) column and washed with 60 ml of loading buffer without protease inhibitors. The proteins were eluted with loading buffer containing 250 mM NaCl and the eluate was directly loaded on a 30 ml His-Bind resin (Novagen) column. The column was washed with 60 ml of loading buffer followed by 60 ml of loading buffer with 45 mM imidazole. The enzyme was eluted with 175 mM imidazole and 2 ml fractions were collected. […] The enzyme at this stage was approximately 90–95% pure. To remove imidazole, sGC-containing fractions were diluted 3 fold with 25 mM triethanolamine pH 7.5, loaded on a 2 ml Hi-Trap DEAE-Sepharose column (Amersham Pharmacia Biotech), washed with 10 ml of loading buffer and eluted with 25 mM triethanolamine pH 7.5, 250 mM NaCl, 10 glycerol, 4 mM MgCl2, 0.5 mM EDTA, 0.5 mM EGTA. The enzyme obtained at this stage (95% or greater purity) was used for experiments.
(§2) Assay of sGC Activity. Enzyme activity was assayed by formation of [^32P] cGMP from α[^32P]GTP at 37° C. in a final volume of 100 μl. Incubation medium contained 50 mM triethanolamine-HCl buffer (pH 7.4), 1 mM 3-isobutyl-1-methylxanthine (IBMX), 1 mg/ml BSA. 1 mM cGMP, 3 mM MgCl2, 0.05 mg/ml creatine phosphokinase, 5 mM creatine phosphate, 0.1 mM EGTA. 200 μM GTP (about 10.000 cpm/pmol). The reaction was started by addition of the substrate (GTP) with or without activators. 1 mM DTT, GSH or cysteine were added to the incubation medium before the addition of GTP. Thiol concentration varied in some experiments as indicated. Samples containing 0.2 μg sGC were incubated for 10 or 15 min and the reaction was stopped by addition of 500 μl 150 mM zinc acetate and 500 μl 180 mM sodium carbonate. The pellet of zinc carbonate containing most of the unreacted GTP was removed by centrifugation and the supernatant fractions were loaded onto columns filled with 1 g of neutral alumina. Columns were then eluted with 10 ml 0.1 M Tris-HCl buffer (pH 7.5) and Cherenkov radiation in flow through plus eluate was counted in a LKB liquid scintillation spectrometer. Samples incubated in the absence of sGC were used as a negative control. The concentration of dimethylsulfoxide (DMSO) used as a vehicle for YC-1 was not higher than 0.1 and had no effect on sGC activity as determined previously.

αβ^Cys105 mutant sGC [2] = target: T1, αβ^Cys105 mutant sGC; test: Heme reconstitution of DTT-treated αβ^Cys105 enzyme followed by UV-Vis spectroscopy; assay type: binding; details: data not shown
Protocol: UV-Vis Spectroscopy. All absorbance measurements were recorded with a dual-beam Cecil 9500 spectrophotometer at 25° C. […] Hemin stock solution (5 mM) was prepared in DMSO and was reduced by dilution in 25 mM TEA, pH 7.5 containing 5 mM DTT to a working solution of 500 μM. The reduced heme was kept under argon in a gas-tight vial during the reconstitution.
The enzyme reconstituted with 10 μM hemin was subjected to gel filtration (after GF) or treated for 15 min with 50 μM NOC-7 (with NO) and the spectra recorded, as shown in FIG. 5D.

wild type sGC [3] = target: T2, wild type sGC (Homo sapiens, UniProt Q02108+Q02153); test: Assay of sGC activity ([32P]cGMP formation from GTP), purified wild type enzyme; assay type: biochemical
T2 construct: made in house; host or cells: Sf9 cells (baculovirus)
T2 sequence (Q02153 1-619): T1 sequence (Q02153 1-619 H105C) with C105H
T2 sequence (Q02108 1-690): T1 sequence (Q02108 1-690)
Protocol: as §1, §2

[4] = target: T3, Sf9 cells expressing wild type sGC (Homo sapiens, UniProt Q02108+Q02153); test: cGMP accumulation in intact Sf9 cells expressing wild type sGC; assay type: cell-based; details: basal, 0.5 mM IBMX
T3 construct: expressed in transfected cells; host or cells: Sf9 cells infected with baculoviruses
T3 sequence (Q02153 1-619): T1 sequence (Q02153 1-619 H105C) with C105H
T3 sequence (Q02108 1-690): T1 sequence (Q02108 1-690)
Protocol: Assay of cGMP Accumulation in Intact Cells. […] The reaction was terminated by addition of 50 μl of 1 M perchloric acid and cGMP was extracted on ice for 1 h. The extract was centrifuged, neutralized with 2M K2CO3 and used for cGMP determination by radioimmunoassay (9, 27). The pellet was dissolved in 0.1 M NaOH and used for protein assay by the method of Lowry (28).
Accumulated cGMP was extracted and quantified as described in Materials and Methods. Values are shown as means±s.d. The differences in intracellular accumulation of cGMP in Sf9 cells expressing the wild type enzyme or the mutant form are discussed below.

wild type sGC [5] = target: T2, wild type sGC; details: cited from earlier work

Row | sensitivity to SNP after addition of hemin (αβ^Cys105 mutant sGC [1]; 1 μM hemin) | sensitivity to SNP after addition of hemin (αβ^Cys105 mutant sGC [1]; 10 μM hemin, data not shown) | NO-activation upon addition of hemin (αβ^Cys105 mutant sGC [1]; presence of 1 mM DTT) | molar excess of reduced hemin at which binding is saturated (αβ^Cys105 mutant sGC [2]) [fold molar excess] | PPIX activation, fold (wild type sGC [3]; +DTT) [fold] | PPIX activation, fold (wild type sGC [3]; No DTT) [fold] | fold activation by NO (wild type sGC [3]; with DTT) | rate of cGMP accumulation [4] [nmol/mg/5 min] | Substance | Specific activity (wild type sGC [3]; +NO (SNP), with DTT (1 mM)) [µmol/min/mg] | Specific activity (wild type sGC [3]; +NO (SNP), with DTT (1 mM), listed as wild type) [µmol/min/mg] | Specific activity (wild type sGC [3]; +NO, without DTT) [µmol/min/mg] | Specific activity (wild type sGC [3]; Basal, with DTT (1 mM)) [µmol/min/mg] | Specific activity (wild type sGC [3]; Basal, with DTT (1 mM), listed as Wild type) [µmol/min/mg] | Specific activity (wild type sGC [3]; Basal, with DTT (1 mM), listed as wild type) [µmol/min/mg] | Specific activity (wild type sGC [3]; Basal, without DTT) [µmol/min/mg] | Specific activity (wild type sGC [3]; Basal, without DTT, listed as Wild type) [µmol/min/mg] | Km (wild type sGC [5]; Basal, read-out: GTP-Km) [µM] | Km (wild type sGC [5]; NO, read-out: GTP-Km) [µM] | Km (wild type sGC [5]; literature (12, 30–32), read-out: range of GTP-Km measured for the recombinant sGC) [µM] | specific activity after exposure to NO (wild type sGC [5]; recombinant wild type human sGC, previous studies) [µmol/min/mg]
1 | did not confer any sensitivity to SNP | did not have any significant effect | partially restored its NO-activation | 13 | – | – | – | – | Hemin [reference compound] | – | – | – | – | – | – | – | – | – | – | – | –
2 | – | – | – | – | 14 | 6 | (72.5) fold | 0.9 | Wild Type: recombinant wild type human soluble guanylyl cyclase expressed in Sf9 cells | 1.45 ± 0.1 | 1.4 | 1.41 ± 0.2 | 0.02 ± 0.01 | 0.02 | 0.02 | 0.05 ± 0.02 | 0.05 | 65 to 448 | 11 to 134 | 65 to 450 | ~1.5
